Among the data in publication PMC8991199, “Promiscuity mapping of the S100 protein family using a high-throughput holdup assay” (Scientific Reports, 2022) are Kd values, retold here.

As a reminder, the Kd is the concentration at which binding is half-saturated.

B1: S100P (natural protein)
chain: MTELETAMGMIIDVFSRYSGSEGSTQTLTKGELKVLMEKELPGFLQSGKDKDAVDKLLKDLDANGDAQVDFSEFIVFVAAITSACHKYFEKAGLK
B2: S100A5 (natural protein)
chain: METPLEKALTTMVTTFHKYSGREGSKLTLSRKELKELIKKELCLGEMKESSIDDLMKSLDKNSDQEIDFKEYSVFLTMLCMAYNDFFLEDNK
B3: S100A11 (natural protein)
chain: MAKISSPTETERCIESLIAVFQKYAGKDGYNYTLSKTEFLSFMNTELAAFTKNQKDPGVLDRMMKKLDTNSDGQLDFSEFLNLIGGLAMACHDSFLKAVPSQKRT
B4: S100A8 (natural protein)
chain: MLTELEKALNSIIDVYHKYSLIKGNFHAVYRDDLKKLLETECPQYIRKKGADVWFKELDINTDGAVNFQEFLILVIKMGVAAHKKSHEESHKE
B5: S100G (natural protein)
chain: MSTKKSPEELKRIFEKYAAKEGDPDQLSKDELKLLIQAEFPSLLKGPNTLDDLFQELDKNGDGEVSFEEFQVLVKKISQ
B6: S100A16 (natural protein)
chain: MSDCYTELEKAVIVLVENFYKYVSKYSLVKNKISKSSFREMLQKELNHMLSDTGNRKAADKLIQNLDANHDGRISFDEYWTLIGGITGPIAKLIHEQEQQSSS
B7: S100B (natural protein)
chain: MSELEKAMVALIDVFHQYSGREGDKHKLKKSELKELINNELSHFLEEIKEQEVVDKVMETLDNDGDGECDFQEFMAFVAMVTTACHEFFEHE
B8: S100A12 (natural protein)
chain: MTKLEEHLEGIVNIFHQYSVRKGHFDTLSKGELKQLLTKELANTIKNIKDKAVIDEIFQGLDANQDEQVDFQEFISLVAIALKAAHYHTHKE
B9: S100Z (natural protein)
chain: MPTQLEMAMDTMIRIFHRYSGKERKRFKLSKGELKLLLQRELTEFLSCQKETQLVDKIVQDLDANKDNEVDFNEFVVMVAALTVACNDYFVEQLKKKGK
B10: S100A13 (natural protein)
chain: MAAEPLTELEESIETVVTTFFTFARQEGRKDSLSVNEFKELVTQQLPHLLKDVGSLDEKMKSLDVNQDSELKFNEYWRLIGELAKEIRKKKDLKIRKK
B11: S100A14 (natural protein)
chain: MGQCRSANAEDAQEFSDVERAIETLIKNFHQYSVEGGKETLTPSELRDLVTQQLPHLMPSNCGLEEKIANLGSCNDSKLEFRSFWELIGEAAKSVKLERPVRGH
B12: S100A3 (natural protein)
chain: MARPLEQAVAAIVCTFQEYAGRCGDKYKLCQAELKELLQKELATWTPTEFRECDYNKFMSVLDTNKDCEVDFVEYVRSLACLCLYCHEYFKDCPSEPPCSQ

Some results are limits rather than exact numbers.

In one test the target is fRR, fluorescently labelled H14 foldamer RR. Description: fluorescence polarisation; direct FP: S100 protein diluted in 50 nM labeled foldamer, 20 mM HEPES pH 7.5, 150 mM NaCl, 1 mM CaCl2, 0.5 mM TCEP, 0.01% Tween20; quadratic fit (ProFit); detection threshold Kd 1 mM.
B1 showed a Kd greater than 1000 µM.
On the same count and under the same terms, in the case of B2 it was 45 µM.
On the same count and under the same terms, the same measure for B3: greater than 1000 µM.
Still for that read-out and setting: in the case of B4 it was greater than 1000 µM; in that of B5, greater than 1000 µM.
In turn, B6 had a Kd greater than 1000 µM.
Same read-out and setting: the same measure for B7: 210 µM; for B8: greater than 1000 µM.
Molecule B9 came in with a Kd greater than 1000 µM.
Same read-out and setting: the same measure for B10: greater than 1000 µM; for B11: greater than 1000 µM.
Molecule B12 returned a Kd greater than 1000 µM.

The target of another test is fWL, fluorescently labelled H14 foldamer WL. The description is as above.
Molecule B1 gave a Kd of 75 µM.
Still for that read-out and setting: in the case of B2 it was 14 µM; in that of B3, greater than 1000 µM; in that of B4, 74 µM.
On the same count and under the same terms, the same measure for B5: greater than 1000 µM.
Consider B6, for which the dissociation constant Kd was 300 µM.
Consider B7, for which the Kd was determined as 11 µM.
Still for that read-out and setting: the same measure for B8: 250 µM; for B9: greater than 1000 µM; for B10: greater than 1000 µM.
The same measure, in the same setting: in the case of B11 it was greater than 1000 µM; in that of B12, greater than 1000 µM.

A further test deals with fWW, fluorescently labelled H14 foldamer WW. The test is described as above.
The molecule B1 gave a Kd of 190 µM.
The same measure, in the same setting: the same measure for B2: 77 µM; for B3: greater than 1000 µM.
Still for that read-out and setting: in the case of B4 it was greater than 1000 µM.
Still for that read-out and setting: the same measure for B5: greater than 1000 µM; for B6: greater than 1000 µM; for B7: greater than 1000 µM.
For B8, the dissociation constant Kd was greater than 1000 µM.
Same read-out and setting: in the case of B9 it was greater than 1000 µM.
On the same count and under the same terms, the same measure for B10: greater than 1000 µM.
The same measure, in the same setting: in the case of B11 it was greater than 1000 µM; in that of B12, 310 µM.

A further test deals with fVL, fluorescently labelled H14 foldamer VL. The test is described as above.
The molecule B1 displayed a dissociation constant (Kd) greater than 1000 µM.
Same read-out and setting: the same measure for B2: 110 µM; for B3: greater than 1000 µM.
Still for that read-out and setting: the same measure for B4: greater than 1000 µM; for B5: greater than 1000 µM; for B6: greater than 1000 µM.
On the same count and under the same terms, in the case of B7 it was 50 µM.
In turn, B8 had a Kd greater than 1000 µM.
On the same count and under the same terms, in the case of B9 it was greater than 1000 µM.
Still for that read-out and setting: the same measure for B10: greater than 1000 µM.
The same measure, in the same setting: in the case of B11 it was greater than 1000 µM; in that of B12, greater than 1000 µM.

Another test concerns the target fRF, fluorescently labelled H14 foldamer RF. Described as above.
Molecule B1 returned a Kd of 190 µM.
The same measure, in the same setting: the same measure for B2: 46 µM; for B3: 1000 µM; for B4: greater than 1000 µM.
Still for that read-out and setting: in the case of B5 it was greater than 1000 µM.
For B6, the equilibrium dissociation constant (Kd) is greater than 1000 µM.
Molecule B7 had a Kd of 230 µM.
On the same count and under the same terms, the same measure for B8: greater than 1000 µM; for B9: 890 µM.
On the same count and under the same terms, the same measure for B10: greater than 1000 µM; for B11: greater than 1000 µM.
The molecule B12 showed a Kd greater than 1000 µM.

A further test deals with fTW, fluorescently labelled H14 foldamer TW. Described as above.
As to B1, the Kd amounted to 170 µM.
Still for that read-out and setting: the same measure for B2: 62 µM; for B3: 570 µM.
Still for that read-out and setting: the same measure for B4: 770 µM; for B5: greater than 1000 µM; for B6: greater than 1000 µM.
Same read-out and setting: in the case of B7 it was 280 µM; in that of B8, greater than 1000 µM; in that of B9, 520 µM.
B10 had a Kd greater than 1000 µM.
As to B11, the dissociation constant Kd was greater than 1000 µM.
The same measure, in the same setting: the same measure for B12: greater than 1000 µM.

The next test has as its target fTM, fluorescently labelled H14 foldamer TM. Described as above.
B1 had a Kd greater than 1000 µM.
Still for that read-out and setting: the same measure for B2: 200 µM.
Take B3: the Kd is greater than 1000 µM.
Same read-out and setting: the same measure for B4: greater than 1000 µM; for B5: greater than 1000 µM; for B6: greater than 1000 µM.
The same measure, in the same setting: in the case of B7 it was greater than 1000 µM; in that of B8, greater than 1000 µM; in that of B9, greater than 1000 µM.
The molecule B10 yielded a Kd greater than 1000 µM.
On the same count and under the same terms, the same measure for B11: greater than 1000 µM; for B12: greater than 1000 µM.

The target in a further test is fYF, fluorescently labelled H14 foldamer YF. Described as above.
On to B1, for which the dissociation constant Kd turned out to be 79 µM. In other words, the double-digit micromolar range.
Consider B2, for which the Kd worked out at 32 µM.
The same measure, in the same setting: in the case of B3 it was greater than 1000 µM.
For the molecule B4, the Kd is 180 µM.
On the same count and under the same terms, in the case of B5 it was greater than 1000 µM.
On the same count and under the same terms, the same measure for B6: greater than 1000 µM.
Same read-out and setting: the same measure for B7: 28 µM; for B8: greater than 1000 µM.
Molecule B9 came in with a Kd greater than 1000 µM.
For B10, the Kd is greater than 1000 µM.
On the same count and under the same terms, the same measure for B11: greater than 1000 µM.
B12: the Kd was greater than 1000 µM.

Another test addresses fIL, fluorescently labelled H14 foldamer IL. The description is as above.
Turning to B1, the Kd was 330 µM.
The same measure, in the same setting: in the case of B2 it was 75 µM.
Consider B3, for which the dissociation constant (Kd) was greater than 1000 µM.
Still for that read-out and setting: the same measure for B4: greater than 1000 µM; for B5: greater than 1000 µM; for B6: greater than 1000 µM.
Molecule B7 displayed a Kd of 63 µM. In other words, the double-digit micromolar range.
The molecule B8 registered a Kd greater than 1000 µM.
The same measure, in the same setting: the same measure for B9: greater than 1000 µM; for B10: greater than 1000 µM; for B11: greater than 1000 µM.
For B12, the Kd was greater than 1000 µM.

The target of the next test is fTI, fluorescently labelled H14 foldamer TI. The test is described as above.
The molecule B1 showed a Kd greater than 1000 µM.
Same read-out and setting: in the case of B2 it was 270 µM; in that of B3, greater than 1000 µM.
Molecule B4 showed a Kd greater than 1000 µM.
The molecule B5 had a dissociation constant Kd greater than 1000 µM.
Same read-out and setting: in the case of B6 it was greater than 1000 µM.
Still for that read-out and setting: in the case of B7 it was greater than 1000 µM; in that of B8, greater than 1000 µM.
The same measure, in the same setting: the same measure for B9: greater than 1000 µM; for B10: greater than 1000 µM; for B11: greater than 1000 µM.
On to B12, for which the Kd was greater than 1000 µM.

A further test has as its target fIF, fluorescently labelled H14 foldamer IF. The description is as above.
Take B1: the Kd stood at 140 µM.
On the same count and under the same terms, the same measure for B2: 27 µM; for B3: 280 µM.
B4 gave a Kd of 750 µM.
Same read-out and setting: the same measure for B5: greater than 1000 µM; for B6: greater than 1000 µM.
The same measure, in the same setting: the same measure for B7: 140 µM; for B8: 590 µM.
Same read-out and setting: in the case of B9 it was 480 µM; in that of B10, greater than 1000 µM.
The molecule B11 returned a Kd greater than 1000 µM.
Still for that read-out and setting: in the case of B12 it was 180 µM.
